Test results published in patent publication US20260139057A1 (University of California, published 2026).

Experiments:
[1] = molecular target: T1, integrin αvβ6 on transfected cells (CHO cells; Expi293 cells transiently expressing αvβ6) (human, UniProt P06756 31-1048; P18564 22-788); assay: flow cytometry on CHO cells expressing αvβ6, antibodies as IgG4
T1 construct: whole, on cells; Legend says 'CHO cells expressing human αvβ8 or αvβ6'; read as human; also called αvβ6 expressing CHO cells

[2] = molecular target: T2, integrin αvβ6 ectodomain (immobilized) (human, UniProt P06756 31-992; P18564 22-709); assay: binding to immobilized integrin ectodomains blocked with BSA
T2 construct: extracellular domain; Bought from R&D Systems or made in ExpiCHO cells; also called immobilized human αvβ6
T2 sequence (P06756 31-992, chain 1 of 2): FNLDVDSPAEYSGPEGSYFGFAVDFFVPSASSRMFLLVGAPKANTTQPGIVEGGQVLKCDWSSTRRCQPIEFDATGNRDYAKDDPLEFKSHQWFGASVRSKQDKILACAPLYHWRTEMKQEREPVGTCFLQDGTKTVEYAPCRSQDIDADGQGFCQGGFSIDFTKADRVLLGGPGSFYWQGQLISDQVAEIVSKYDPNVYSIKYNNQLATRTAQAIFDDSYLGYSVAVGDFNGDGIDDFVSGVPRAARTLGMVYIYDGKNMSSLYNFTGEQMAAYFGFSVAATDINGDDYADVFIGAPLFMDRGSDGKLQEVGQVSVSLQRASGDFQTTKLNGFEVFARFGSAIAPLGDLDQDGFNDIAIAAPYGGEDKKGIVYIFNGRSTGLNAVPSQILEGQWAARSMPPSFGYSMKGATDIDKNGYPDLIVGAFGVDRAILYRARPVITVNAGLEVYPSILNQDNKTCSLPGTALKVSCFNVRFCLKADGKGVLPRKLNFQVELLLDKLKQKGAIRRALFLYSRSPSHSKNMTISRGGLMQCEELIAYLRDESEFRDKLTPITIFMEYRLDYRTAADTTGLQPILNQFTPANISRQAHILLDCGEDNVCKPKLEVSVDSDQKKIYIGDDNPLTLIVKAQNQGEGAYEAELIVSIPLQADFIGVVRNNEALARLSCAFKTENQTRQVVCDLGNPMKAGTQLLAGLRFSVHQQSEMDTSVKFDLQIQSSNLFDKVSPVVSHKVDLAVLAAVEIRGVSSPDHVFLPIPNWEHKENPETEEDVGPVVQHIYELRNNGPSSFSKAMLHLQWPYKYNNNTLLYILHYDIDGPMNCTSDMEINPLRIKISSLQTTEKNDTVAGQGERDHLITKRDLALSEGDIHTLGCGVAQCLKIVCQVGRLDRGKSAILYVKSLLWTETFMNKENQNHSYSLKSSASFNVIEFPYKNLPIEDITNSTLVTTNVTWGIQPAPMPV
T2 sequence (P18564 22-709, chain 2 of 2): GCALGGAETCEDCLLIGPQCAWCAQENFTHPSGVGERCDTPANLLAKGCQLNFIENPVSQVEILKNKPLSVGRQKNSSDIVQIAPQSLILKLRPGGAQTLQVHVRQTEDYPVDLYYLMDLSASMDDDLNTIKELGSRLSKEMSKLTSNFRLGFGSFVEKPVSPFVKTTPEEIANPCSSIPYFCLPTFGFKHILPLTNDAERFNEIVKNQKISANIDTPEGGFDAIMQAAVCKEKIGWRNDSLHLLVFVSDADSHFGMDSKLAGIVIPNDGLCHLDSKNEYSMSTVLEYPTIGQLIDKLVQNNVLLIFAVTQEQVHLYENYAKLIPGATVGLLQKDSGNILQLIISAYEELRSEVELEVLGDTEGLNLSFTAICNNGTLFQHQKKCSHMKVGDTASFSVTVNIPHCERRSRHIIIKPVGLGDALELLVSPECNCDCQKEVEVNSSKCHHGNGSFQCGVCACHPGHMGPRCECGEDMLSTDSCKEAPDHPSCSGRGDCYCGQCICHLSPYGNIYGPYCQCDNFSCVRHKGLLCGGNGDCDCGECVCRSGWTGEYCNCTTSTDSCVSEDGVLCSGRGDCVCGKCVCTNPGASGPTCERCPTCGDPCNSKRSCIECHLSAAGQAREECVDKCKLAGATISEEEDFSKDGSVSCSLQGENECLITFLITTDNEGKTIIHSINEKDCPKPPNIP

[3] = molecular target: T3, integrin αvβ1 ectodomain (immobilized) (Homo sapiens (Human), UniProt P06756 31-992; P05556 21-728); assay: as above
T3 construct: R&D Systems; copies: 1 + 1

[4] = molecular target: T4, integrin αvβ5 ectodomain (immobilized) (Homo sapiens (Human), UniProt P06756 31-992; P18084 24-719); assay: as above
T4 construct: R&D Systems; copies: 1 + 1
T4 sequence (P06756 31-992 limits assumed, chain 1 of 2): as the sequence (P06756 31-992, chain 1 of 2) above
T4 sequence (P18084 24-719 limits assumed, chain 2 of 2): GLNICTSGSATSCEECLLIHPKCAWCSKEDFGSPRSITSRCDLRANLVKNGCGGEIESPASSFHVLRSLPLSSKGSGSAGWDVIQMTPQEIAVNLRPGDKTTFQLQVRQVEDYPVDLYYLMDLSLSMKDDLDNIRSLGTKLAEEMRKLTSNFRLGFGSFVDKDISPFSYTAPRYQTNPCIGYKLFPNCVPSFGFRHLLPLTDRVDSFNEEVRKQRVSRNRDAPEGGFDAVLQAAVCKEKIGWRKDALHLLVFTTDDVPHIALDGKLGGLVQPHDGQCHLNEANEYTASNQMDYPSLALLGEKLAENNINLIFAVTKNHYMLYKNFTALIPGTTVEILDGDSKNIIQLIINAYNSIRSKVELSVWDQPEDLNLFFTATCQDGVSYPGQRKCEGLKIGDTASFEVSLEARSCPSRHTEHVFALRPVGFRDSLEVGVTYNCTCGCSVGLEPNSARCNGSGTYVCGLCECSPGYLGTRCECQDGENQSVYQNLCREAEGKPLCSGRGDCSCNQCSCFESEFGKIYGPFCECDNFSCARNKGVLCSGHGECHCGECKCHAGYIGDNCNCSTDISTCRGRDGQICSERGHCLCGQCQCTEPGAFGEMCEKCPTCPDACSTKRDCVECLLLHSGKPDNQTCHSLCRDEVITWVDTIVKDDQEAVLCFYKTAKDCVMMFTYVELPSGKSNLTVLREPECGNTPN

[5] = molecular target: recombinant human integrin αvβ8 ectodomain (human, UniProt P06756 31-992; P26012 43-681); assay: cell-based or functional assay
[6] = molecular target: T5, integrin αvβ3 on HEK 293 cells stably expressing αvβ3 (Homo sapiens (Human), UniProt P06756 31-1048; P05106 27-788); assay: flow cytometry on HEK 293 cells stably expressing αvβ3
T5 construct: also called αvβ3 expressing 293 cells
T5 sequence (P06756 31-1048 limits assumed, chain 1 of 2): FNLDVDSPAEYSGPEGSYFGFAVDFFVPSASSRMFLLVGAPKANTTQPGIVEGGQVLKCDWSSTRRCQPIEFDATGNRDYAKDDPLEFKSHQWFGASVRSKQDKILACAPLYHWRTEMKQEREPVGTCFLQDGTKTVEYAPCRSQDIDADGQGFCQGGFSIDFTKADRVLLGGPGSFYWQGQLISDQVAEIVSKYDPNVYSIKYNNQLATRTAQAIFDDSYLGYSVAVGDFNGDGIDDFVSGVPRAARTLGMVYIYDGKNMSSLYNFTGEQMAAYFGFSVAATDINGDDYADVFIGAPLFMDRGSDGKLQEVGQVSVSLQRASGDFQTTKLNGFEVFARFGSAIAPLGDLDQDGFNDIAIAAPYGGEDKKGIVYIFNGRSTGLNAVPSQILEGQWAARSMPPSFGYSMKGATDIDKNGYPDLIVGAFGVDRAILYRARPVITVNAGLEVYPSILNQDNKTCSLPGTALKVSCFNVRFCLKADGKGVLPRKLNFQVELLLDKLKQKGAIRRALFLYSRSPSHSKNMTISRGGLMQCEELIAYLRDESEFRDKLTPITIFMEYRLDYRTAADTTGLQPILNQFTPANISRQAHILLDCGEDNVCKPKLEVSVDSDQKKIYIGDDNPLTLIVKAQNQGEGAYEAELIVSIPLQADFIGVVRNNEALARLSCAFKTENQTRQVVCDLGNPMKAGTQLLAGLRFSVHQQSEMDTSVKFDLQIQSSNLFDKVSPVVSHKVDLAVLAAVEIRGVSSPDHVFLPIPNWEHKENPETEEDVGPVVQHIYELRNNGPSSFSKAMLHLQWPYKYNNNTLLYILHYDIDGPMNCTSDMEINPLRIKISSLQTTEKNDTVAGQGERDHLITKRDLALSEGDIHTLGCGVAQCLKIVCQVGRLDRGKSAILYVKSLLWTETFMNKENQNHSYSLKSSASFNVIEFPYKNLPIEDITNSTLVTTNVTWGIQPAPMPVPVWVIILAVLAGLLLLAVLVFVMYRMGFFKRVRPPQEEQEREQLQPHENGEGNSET
T5 sequence (P05106 27-788 limits assumed, chain 2 of 2): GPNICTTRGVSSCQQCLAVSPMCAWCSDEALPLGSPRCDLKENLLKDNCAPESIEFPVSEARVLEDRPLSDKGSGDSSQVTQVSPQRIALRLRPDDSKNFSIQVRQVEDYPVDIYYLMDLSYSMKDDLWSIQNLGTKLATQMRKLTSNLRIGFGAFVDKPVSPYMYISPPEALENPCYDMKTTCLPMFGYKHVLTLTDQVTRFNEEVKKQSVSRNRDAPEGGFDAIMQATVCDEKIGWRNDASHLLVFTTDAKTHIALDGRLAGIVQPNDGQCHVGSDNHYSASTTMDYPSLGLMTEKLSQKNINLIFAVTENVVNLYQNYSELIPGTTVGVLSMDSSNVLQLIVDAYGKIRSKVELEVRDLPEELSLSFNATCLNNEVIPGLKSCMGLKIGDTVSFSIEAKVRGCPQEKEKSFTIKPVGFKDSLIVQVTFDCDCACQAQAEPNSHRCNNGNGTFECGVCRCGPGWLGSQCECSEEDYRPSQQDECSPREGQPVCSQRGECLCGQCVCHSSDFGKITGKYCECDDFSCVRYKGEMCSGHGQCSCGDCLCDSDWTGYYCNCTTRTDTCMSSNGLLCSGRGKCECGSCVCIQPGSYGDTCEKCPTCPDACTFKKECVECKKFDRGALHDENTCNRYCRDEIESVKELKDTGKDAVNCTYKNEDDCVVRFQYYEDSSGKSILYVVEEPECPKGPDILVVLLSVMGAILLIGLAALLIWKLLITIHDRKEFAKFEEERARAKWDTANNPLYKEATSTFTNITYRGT
Source text: (§1) A) Binding of anti-β3 (AP3) relative to F12 IgG4, H4C8 RGD1 IgG4,H4C8 RGD3 IgG4, H3C8 RGD3 with VL Fr4 V108/L109 (mouse) IgG4, H4C8 RGD3 IgG4, H3C8 RGD3 VL Fr4 K108/V109 (human) IgG4, H4C8 RGD1 VH Fr3 E72, H4C8 RGD3 VH Fr3 E72 IgG4. HEK 293 cells stably expressing αvβ3 were stained and the percentage of relative binding to the mean fluorescence intensity of AP3 is shown, B) Expi293 cells transiently expressing αvβ6 were stained and the percentage of relative binding to the mean fluorescence intensity of 3G9 is shown, C) HEK 293 cells stably expressing αvβ8 were stained and the percentage of relative binding to the mean fluorescence intensity of HuF12 is shown. All primary antibodies were used at 2.5 ug/ml. […] Binding or 3G9 is shown and percent binding of antibodies relative to 3G9 binding to αvβ6 is shown. Dotted line indicate binding observed with each positive control antibody,
(§2) RGD ligands bind promiscuously to a number of integrins. A highly desirable quality in RGD-mimetics is to retain specificity for some but not all integrins. One highly desirable property would be a dual inhibitor to both the αvβ8- and αvβ6-integrins, without cross-reactivity to other integrins. This property would facilitate specific targeting of integrin-mediated TGF-β activation without the liability of side-effects mediated by broadly blocking other integrins. We first measured binding to αvβ3 expressing 293 cells. Binding of anti-β3 (AP3) relative to F12 IgG4, H4C8 RGD1 IgG4,H4C8 RGD3 IgG4, H3C8 RGD3 with VL Fr4 V108/L109 (mouse) IgG4, H4C8 RGD3 IgG4, H3C8 RGD3 VI Fr4 K108/V109 (human) IgG4, H4C8 RGD1 Vh Fr3 E72, H4C8 RGD3 Vh Fr3 E72 IgG4. […] Expi293 cells transiently expressing αvβ6 were stained and the percentage of relative binding to the mean fluorescence intensity of anti-β6 (3G9) determined.

[7] = molecular target: T2, integrin αvβ6 ectodomain (immobilized); assay: binding to immobilized αvβ6 ectodomain
[8] = molecular target: T3, integrin αvβ1 ectodomain (immobilized); assay: binding to immobilized ectodomains
[9] = molecular target: T4, integrin αvβ5 ectodomain (immobilized); assay: binding to immobilized ectodomains
[10] = molecular target: T1, integrin αvβ6 on transfected cells (CHO …); assay: flow cytometry on Expi293 cells transiently expressing αvβ6, antibody at 2.5 µg/ml
Experimental: as §1, with “HEK” for “A) Binding of anti-β3 (AP3) relative to F12 IgG4, H4C8 RGD1 IgG4,H4C8 RGD3 IgG4, H3C8 RGD3 with VL Fr4 V108/L109 (mouse) IgG4, H4C8 RGD3 IgG4, H3C8 RGD3 VL Fr4 K108/V109 (human) IgG4, H4C8 RGD1 VH Fr3 E72, H4C8 RGD3 VH Fr3 E72 IgG4. HEK”
as §2, with “cells.” for “cells. Binding of anti-β3 (AP3) relative to F12 IgG4, H4C8 RGD1 IgG4,H4C8 RGD3 IgG4, H3C8 RGD3 with VL Fr4 V108/L109 (mouse) IgG4, H4C8 RGD3 IgG4, H3C8 RGD3 VI Fr4 K108/V109 (human) IgG4, H4C8 RGD1 Vh Fr3 E72, H4C8 RGD3 Vh Fr3 E72 IgG4.”, “determined. […]” for “determined.”

[11] = molecular target: T6, human integrin αvβ8 on transfected cells (CHO cells stably transfected; HEK 293 cells stably expressing αvβ8) (human, UniProt P06756 31-1048; P26012 43-769); assay: flow cytometry on HEK 293 cells stably expressing αvβ8
T6 construct: whole, on cells; also called CHO αvβ8 cells; αvβ8 expressing CHO cells
Source text: as §1, with “FIG. 33 H4C8 RGD3 and H4C8 RGD1 show specificity for αvβ6 and αvβ8, VL Fr4 K108/V109 humanization improves or maintains binding, VH Fr4 Q72 improves binding over E72. A)” for “A)”, “antibody, […]” for “antibody,”

[12] = molecular target: T6, human integrin αvβ8 on transfected …; assay: flow cytometry on HEK 293 cells stably expressing αvβ8, antibody at 2.5 µg/ml
Source text: as §1, with “FIG. 33 H4C8 RGD3 and H4C8 RGD1 show specificity for αvβ6 and αvβ8, VL Fr4 K108/V109 humanization improves or maintains binding, VH Fr4 Q72 improves binding over E72. A)” for “A)”, “antibody, […]” for “antibody,”

T1 sequence (P06756 31-1048, chain 1 of 2): as the sequence (P06756 31-1048 limits assumed, chain 1 of 2) above
T1 sequence (P18564 22-788, chain 2 of 2): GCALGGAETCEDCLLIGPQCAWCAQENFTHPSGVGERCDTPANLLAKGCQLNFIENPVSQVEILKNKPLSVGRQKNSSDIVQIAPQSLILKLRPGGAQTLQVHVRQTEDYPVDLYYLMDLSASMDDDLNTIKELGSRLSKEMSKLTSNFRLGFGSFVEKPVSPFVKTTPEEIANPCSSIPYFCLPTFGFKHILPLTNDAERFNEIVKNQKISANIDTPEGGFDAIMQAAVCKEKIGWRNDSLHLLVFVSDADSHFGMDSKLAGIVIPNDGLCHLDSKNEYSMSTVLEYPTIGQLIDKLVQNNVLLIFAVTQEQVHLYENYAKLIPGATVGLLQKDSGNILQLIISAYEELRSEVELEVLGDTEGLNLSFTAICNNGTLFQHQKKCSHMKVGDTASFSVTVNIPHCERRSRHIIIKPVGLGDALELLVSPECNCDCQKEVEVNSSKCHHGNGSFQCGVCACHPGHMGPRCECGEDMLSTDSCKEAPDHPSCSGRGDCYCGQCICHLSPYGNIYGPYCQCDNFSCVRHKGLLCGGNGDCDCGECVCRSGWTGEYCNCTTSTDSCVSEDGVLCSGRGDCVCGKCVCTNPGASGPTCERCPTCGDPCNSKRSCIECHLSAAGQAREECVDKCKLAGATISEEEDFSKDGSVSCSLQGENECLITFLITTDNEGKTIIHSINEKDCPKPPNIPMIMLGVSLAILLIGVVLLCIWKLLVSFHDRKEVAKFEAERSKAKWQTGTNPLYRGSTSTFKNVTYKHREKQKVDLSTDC

| binding result [1] | binding result [2] | binding result [3] | binding result [4] | ED50 of the inhibition of αvβ8-mediated TGF-β activation (immobilized human αvβ8, TMLC GARP/L-TGF-β reporter cells) [5] [µg/mL] | binding result [6] | binding result [7] | binding result [8] | binding result [9] | binding result [10] | binding result [11] | binding result [12] | Binder |
| --- | --- | --- | --- | --- | --- | --- | --- | --- | --- | --- | --- | --- |
| no binding (tested: 1 µg/mL) | no binding | no binding | no binding | 0.14 | no binding (tested: 2.5 µg/ml) |  |  |  |  |  |  | HuC6D4 F12 IgG4 (antibody, also called HuF12) heavy: QIQLVQSGAEVKKPGASVKISCKASGYTFTKYSMHWVRQAPGQGLEWVARINTETGEPTFADDFRGRFTVTLDTSTSTAYLEIRSLRSDDTAVYFCAIFYYGRDTWGQGTTLTVSSASTKGPSVFPLAPCSRSTSESTAALGCLVKDYFPEPVTVSWNSGALTSGVHTFPAVLQSSGLYSLSSVVTVPSSSLGTKTYTCNVDHKPSNTKVDKRVESKYGPPCPPCPAPEFLGGPSVFLFPPKPKDTLMISRTPEVTCVVVDVSQEDPEVQFNWYVDGVEVHNAKTKPREEQFNSTYRVVSVLTVLHQDWLNGKEYKCKVSNKGLPSSIEKTISKAKGQPREPQVYTLPPSQEEMTKNQVSLTCLVKGFYPSDIAVEWESNGQPENNYKTTPPVLDSDGSFFLYSKLTVDKSRWQEGNVFSCSVMHEALHNHYTQKSLSLSPGK VL: EIVMTQSPATLSVSPGERVTMSCKSSQSLLHSRSRKNYLAWYQQKPGQAPRLLIYWASTRESGVPARFSGSGSGTEFTLTISSVQSEDFAVYYCKQSYNLLSFGQGTVLEIKR |
|  |  |  |  |  | no binding (tested: 2.5 µg/ml) | binds | no binding | no binding | binds | no binding (tested: 2.5 µg/ml) |  | H4C8 RGD1 VH Fr3 E72 (antibody, IgG4, V domains shown) VH: QVQLVQSGAEVKKPGASVKVSCKVSGYTLTRQSMHWVRQAPGKGLEWMGRINTETGEPTYAQKFQGRVTMTEDTSTDTAYMELSSLRSEDTAVYFCAIFYYGRDTWGQGTTVTVSS VL: EIVMTQSPATLSVSPGERVTLSCKSSQSLLRRGDLATIHGNALAWYQQKPGQAPRLLIYWASTRETGVPARFSGSGSGTEFTLTISSLQSEDFAVYYCKQSYNLLSFGQGTKVEIKR |
|  |  |  |  |  | no binding (tested: 2.5 µg/ml) | binds | no binding | no binding | binds |  | binds | H4C8 RGD3 VH Fr3 E72 IgG4 (antibody, V domains shown, IgG4) VH: QVQLVQSGAEVKKPGASVKVSCKVSGYTLTRQSMHWVRQAPGKGLEWMGRINTETGEPTYAQKFQGRVTMTEDTSTDTAYMELSSLRSEDTAVYFCAIFYYGRDTWGQGTTVTVSS VL: EIVMTQSPATLSVSPGERVTLSCKSSQSLLGRGDLGRLKKNALAWYQQKPGQAPRLLIYWASTRETGVPARFSGSGSGTEFTLTISSLQSEDFAVYYCKQSYNLLSFGQGTKVEIKR |
